Test results as given in patent US12630600B2 (MEDIMMUNE LIMITED, priority 2022, dated 2026).
Starred links: 1 amine or outer side, 2 acyl side, 3 side chain; linkers in the order of their positions; H or OH if unused. Non-standard residues stand in square brackets, D forms with d. Groups on a side chain read outwards from the residue. No end group written: not given here. *: point of attachment. β‑dimethylGln = β-dimethylglutamine, CC(C)(CC(N)=O)[C@H](N[*:1])C(=O)[*:2]; C20 diacid = O=C(O)CCCCCCCCCCCCCCCCCCC(=O)*; C18 diacid = O=C(O)CCCCCCCCCCCCCCCCC(=O)*; γGlu = O=C(O)[C@H](CCC(=O)[*:2])N[*:1]; αMeF = C[C@](N)(Cc1ccccc1)C(=O)O; AEEA = NCCOCCOCC(=O)O; Aib = CC(C)(N)C(=O)O

Legend:
[1] = biological target: human GLP-1 receptor (human, UniProt P43220); assay: cell-based or functional assay
[2] = biological target: human glucagon receptor (human, UniProt P47871); assay: cell-based or functional assay

Binder	hGLP-1R EC50 (pM) [1] [pM]	hGluc-R EC50 (pM) [2] [pM]
H[Aib]HGS[αMeF]TSDVSK[αMeF]LDSRAAK([AEEA-AEEA-γGlu-γGlu-C20 diacid])D[αMeF]IA[Aib]IAET-NH2 [Peptide 302]	151	271
H[Aib]HGS[αMeF]TSDVSK[αMeF]LDSRAAKD[αMeF]VQWIANT-NH2 (not fully specified (residue 20); also: X13: αMePhe or Y (table)) [Peptide 289]	118	148
H[Aib]HGS[αMeF]TSDVSK[αMeF]LDSRAAK([AEEA-AEEA-γGlu-C18 diacid])D[αMeF]VQWIANT-NH2 [Peptide 288]	42.7	26.9
H[Aib]HGS[αMeF]TSDVSK[αMeF]LDSRAAK([AEEA-AEEA-γGlu-C18 diacid])DFVQ[Aib]IANT-NH2 [Peptide 287]	27.5	26.5
H[Aib]HGS[αMeF]TSDVSK[αMeF]LDSRAAK([AEEA-AEEA-γGlu-γGlu-C20 diacid])D[αMeF]VQ[Aib]IANT-OH [Peptide 304]	239	687
H[Aib]HGS[αMeF]TSDVSK[αMeF]LDSRAAK([AEEA-AEEA-γGlu-C18 diacid])D[αMeF]VQ[Aib]IAET-NH2 (N-terminus assumed; SMILES CC[C@H](C)[C@H](NC(=O)C(C)(C)NC(=O)[C@H](CCC(N)=O)NC(=O)[C@@H](NC(=O)[C@](C)(Cc1ccccc1)NC(=O)[C@H](CC(=O)O)NC(=O)[C@H](CCCCNC(=O)COCCOCCNC(=O)COCCOCCNC(=O)CC[C@H](NC(=O)CCCCCCCCCCCCCCCCC(=O)O)C(=O)O)NC(=O)[C@H](C)NC(=O)[C@H](C)NC(=O)[C@H](CCCNC(=N)N)NC(=O)[C@H](CO)NC(=O)[C@H](CC(=O)O)NC(=O)[C@H](CC(C)C)NC(=O)[C@](C)(Cc1ccccc1)NC(=O)[C@H](CCCCN)NC(=O)[C@H](CO)NC(=O)[C@@H](NC(=O)[C@H](CC(=O)O)NC(=O)[C@H](CO)NC(=O)[C@@H](NC(=O)[C@](C)(Cc1ccccc1)NC(=O)[C@H](CO)NC(=O)CNC(=O)[C@H](Cc1c[nH]cn1)NC(=O)C(C)(C)NC(=O)[C@@H](N)Cc1c[nH]cn1)[C@@H](C)O)C(C)C)C(C)C)C(=O)N[C@@H](C)C(=O)N[C@@H](CCC(=O)O)C(=O)N[C@H](C(N)=O)[C@@H](C)O) [Peptide 300]	19.7	18.4
H[Aib]HGS[αMeF]TSDVSR[αMeF]LDSRAAK([AEEA-AEEA-γGlu-γGlu-C20 diacid])D[αMeF]VQ[Aib]IANT-NH2 (N-terminus assumed; SMILES CC[C@H](C)[C@H](NC(=O)C(C)(C)NC(=O)[C@H](CCC(N)=O)NC(=O)[C@@H](NC(=O)[C@](C)(Cc1ccccc1)NC(=O)[C@H](CC(=O)O)NC(=O)[C@H](CCCCNC(=O)COCCOCCNC(=O)COCCOCCNC(=O)CC[C@H](NC(=O)CC[C@H](NC(=O)CCCCCCCCCCCCCCCCCCC(=O)O)C(=O)O)C(=O)O)NC(=O)[C@H](C)NC(=O)[C@H](C)NC(=O)[C@H](CCCNC(=N)N)NC(=O)[C@H](CO)NC(=O)[C@H](CC(=O)O)NC(=O)[C@H](CC(C)C)NC(=O)[C@](C)(Cc1ccccc1)NC(=O)[C@H](CCCNC(=N)N)NC(=O)[C@H](CO)NC(=O)[C@@H](NC(=O)[C@H](CC(=O)O)NC(=O)[C@H](CO)NC(=O)[C@@H](NC(=O)[C@](C)(Cc1ccccc1)NC(=O)[C@H](CO)NC(=O)CNC(=O)[C@H](Cc1c[nH]cn1)NC(=O)C(C)(C)NC(=O)[C@@H](N)Cc1c[nH]cn1)[C@@H](C)O)C(C)C)C(C)C)C(=O)N[C@@H](C)C(=O)N[C@@H](CC(N)=O)C(=O)N[C@H](C(N)=O)[C@@H](C)O) [Peptide 298]	75.5	573
H[Aib]HGS[αMeF]TSDVSK[Aib]LDSRAAK([AEEA-AEEA-γGlu-C18 diacid])D[αMeF]VQ[Aib]IANT-NH2 [Peptide 296]	64.1	3250
H[Aib]HGS[αMeF]TSDVSK[αMeF]LDSRAAK([AEEA-AEEA-γGlu-γGlu-C20 diacid])DFVQWIANT-NH2 (not fully specified) [Peptide 290]	347	260
H[Aib]HGS[αMeF]TSDVSKYLDSRAAKDFVQWIANT-NH2 (not fully specified (residue 20)) [Peptide 292]	28.7	20.4
H[Aib]HGS[αMeF]TSDVSKYLDSRAAK([AEEA-AEEA-γGlu-C18 diacid])D[αMeF]VQ[Aib]IANT-NH2 (not fully specified; also: X13: αMePhe or Y (table)) [Peptide 286]	31.6	53
HSHGS[αMeF]TSDVSK[αMeF]LDSRAAK([AEEA-AEEA-γGlu-C18 diacid])D[αMeF]VQ[Aib]IANT-NH2 [Peptide 285]	301	87
H[Aib]HGS[αMeF]TSDVSK[Aib]LDSRAAK([AEEA-AEEA-γGlu-γGlu-C20 diacid])D[αMeF]VQ[Aib]IANT-NH2 [Peptide 295]	312	17100

More lines, now with the values ahead:

hGLP-1R EC50 (pM) [1] [pM]	hGluc-R EC50 (pM) [2] [pM]	Binder
1330	1930	HS[β‑dimethylGln]GS[αMeF]TSDVSK[αMeF]LDSRAAK([AEEA-AEEA-γGlu-C18 diacid])D[αMeF]VQ[Aib]IANT-NH2 (N-terminus assumed; SMILES CC[C@H](C)[C@H](NC(=O)C(C)(C)NC(=O)[C@H](CCC(N)=O)NC(=O)[C@@H](NC(=O)[C@](C)(Cc1ccccc1)NC(=O)[C@H](CC(=O)O)NC(=O)[C@H](CCCCNC(=O)COCCOCCNC(=O)COCCOCCNC(=O)CC[C@H](NC(=O)CCCCCCCCCCCCCCCCC(=O)O)C(=O)O)NC(=O)[C@H](C)NC(=O)[C@H](C)NC(=O)[C@H](CCCNC(=N)N)NC(=O)[C@H](CO)NC(=O)[C@H](CC(=O)O)NC(=O)[C@H](CC(C)C)NC(=O)[C@](C)(Cc1ccccc1)NC(=O)[C@H](CCCCN)NC(=O)[C@H](CO)NC(=O)[C@@H](NC(=O)[C@H](CC(=O)O)NC(=O)[C@H](CO)NC(=O)[C@@H](NC(=O)[C@](C)(Cc1ccccc1)NC(=O)[C@H](CO)NC(=O)CNC(=O)[C@@H](NC(=O)[C@H](CO)NC(=O)[C@@H](N)Cc1c[nH]cn1)C(C)(C)CC(N)=O)[C@@H](C)O)C(C)C)C(C)C)C(=O)N[C@@H](C)C(=O)N[C@@H](CC(N)=O)C(=O)N[C@H](C(N)=O)[C@@H](C)O) [Peptide 324]
22.6	4400	H[Aib]QGT[αMeF]TSDVSK[αMeF]LDSRAAK([AEEA-AEEA-γGlu-C18 diacid])D[αMeF]VQ[Aib]IANT-NH2 (not fully specified) [Peptide 321]
18.1	5850	H[Aib]QGTFTSDVSK[αMeF]LDSRAAK([AEEA-AEEA-γGlu-C18 diacid])DFVQ[Aib]LVAT-NH2 (not fully specified) [Peptide 315]
68.3	> 24700	H[Aib]QGS[αMeF]TSDVSK[αMeF]LDSRAAKD[αMeF]VQ[Aib]IANT-NH2 (not fully specified (residue 20)) [Peptide 322]
55.2	12000	H[Aib]QGTFTSDVSK[αMeF]LDSRAAK([AEEA-AEEA-γGlu-C18 diacid])DFVQWIANT-NH2 (not fully specified) [Peptide 318]
211	155	H[Aib]HGS[αMeF]TSDVSK[αMeF]LDSRAAK([AEEA-AEEA-γGlu-γGlu-C20 diacid])D[αMeF]VQ[Aib]IANT-NH2 (N-terminus assumed; SMILES CC[C@H](C)[C@H](NC(=O)C(C)(C)NC(=O)[C@H](CCC(N)=O)NC(=O)[C@@H](NC(=O)[C@](C)(Cc1ccccc1)NC(=O)[C@H](CC(=O)O)NC(=O)[C@H](CCCCNC(=O)COCCOCCNC(=O)COCCOCCNC(=O)CC[C@H](NC(=O)CC[C@H](NC(=O)CCCCCCCCCCCCCCCCCCC(=O)O)C(=O)O)C(=O)O)NC(=O)[C@H](C)NC(=O)[C@H](C)NC(=O)[C@H](CCCNC(=N)N)NC(=O)[C@H](CO)NC(=O)[C@H](CC(=O)O)NC(=O)[C@H](CC(C)C)NC(=O)[C@](C)(Cc1ccccc1)NC(=O)[C@H](CCCCN)NC(=O)[C@H](CO)NC(=O)[C@@H](NC(=O)[C@H](CC(=O)O)NC(=O)[C@H](CO)NC(=O)[C@@H](NC(=O)[C@](C)(Cc1ccccc1)NC(=O)[C@H](CO)NC(=O)CNC(=O)[C@H](Cc1c[nH]cn1)NC(=O)C(C)(C)NC(=O)[C@@H](N)Cc1c[nH]cn1)[C@@H](C)O)C(C)C)C(C)C)C(=O)N[C@@H](C)C(=O)N[C@@H](CC(N)=O)C(=O)N[C@H](C(N)=O)[C@@H](C)O) [Peptide 305]
